Laboratory results published in patent US20240368283A1.

Key:
[1] = target: cyPD1 (cynomolgus monkey); assay: biosensor kinetics (BLI type); antibody captured on anti-human Fc biosensor, PD-1 in solution
huPD1 (human) = huPD1 (human) (UniProt Q15116); assay: as above
Chain of huPD1 (human) (Q15116 25-170 limits assumed): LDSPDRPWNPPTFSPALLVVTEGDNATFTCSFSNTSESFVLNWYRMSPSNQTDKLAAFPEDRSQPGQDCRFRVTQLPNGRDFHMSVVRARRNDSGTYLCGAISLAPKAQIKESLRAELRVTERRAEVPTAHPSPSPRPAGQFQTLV

Row | Kd [1] | koff [1] | kon [1] | Kd (huPD1 (human)) | koff (huPD1 (human)) | kon (huPD1 (human)) | Binder
1 | 92 nM | 0.0137 s⁻¹ | 149000 M⁻¹ s⁻¹ | 5.72 nM | 0.000647 s⁻¹ | 113000 M⁻¹ s⁻¹ | TA132 (antibody, V domains shown, Fc SEQ 587, CL SEQ 416) VH: EVQLLESGGAFVQPGGSLRLSCAASGFTFSDYYMSWVRQAPGKGLEWVSVISNSGGSTYYTDSVKGRFTISRDNSKNTLYLQINSLRAEDTAVYYCTKDIGMTYFDYWGQGTLVTVSS VL: QSVLTQPPSASGAPGQRVTISCSGSYSNIGNSYVSWYQQLPGTAPKLLIYLNSQRPSGVPDRFSGSKSGTSASLAISGLQSEDEADYYCAAWDDLNVWVFGGGTKLTVL
2 | 987 nM | 0.2 s⁻¹ | 200000 M⁻¹ s⁻¹ | 600 nM | 0.2 s⁻¹ | 330000 M⁻¹ s⁻¹ | TA275 (antibody, V domains shown, Fc SEQ 587, CL SEQ 416) VH: QVTLKESGPGILQPSQTLSLTCSFSGFSLSTFGMGVGWIRQPSGKGLEWLAHIWWDDDKYYNPALKSRLTISKDTSKNQVFLKIANVDTADTATYYCARIPTRYWYFDVWGTGTTVTVSS VL: QAVVTQESALTTSPGETVTLTCRSSTGAVTTSNYANWVQEKPDHLFTGLIGGTNNRAPGVPARFSGSLIGDKAALTITGAQTEDEAIYFCALWYSTHYVFGGGTKVTVL
3 | 1390 nM | 2.1 s⁻¹ | 1.6e+06 M⁻¹ s⁻¹ | 484 nM | 1.6 s⁻¹ | 3.4e+06 M⁻¹ s⁻¹ | TA289 (antibody, V domains shown, Fc SEQ 587, CL SEQ 416) VH: QVTLKESGPGILQPSQTLSLTCSFSGFSLSTFGMGVGWIRQPSGKGLEWLAHIWWDDDKYYNPALKSRLTISKDTSKNQVFLKIANVDTADTATYYCARIRGTWWYFDVWGTGTTVTVSS VL: QAVVTQESALTTSPGETVTLTCRSSTGAVTTSNYANWVQEKPDHLFTGLIGGTNNRAPGVPARFSGSLIGDKAALTITGAQTEDEAIYFCALWYSNQFIFGSGTKVTVL
4 | 62.2 nM | 0.0076 s⁻¹ | 120000 M⁻¹ s⁻¹ | 32.9 nM | 0.022 s⁻¹ | 680000 M⁻¹ s⁻¹ | TA101 (antibody, V domains shown, Fc SEQ 587, CL SEQ 416) VH: DVQLVESGGGVARPGEFLRLSCAASGFTFRDYDMGWVRQAPGEGLEWVSSISVSGTTYYADSVKGRFTISRDNSENTLYLQMNSLTAEDTAVYYCGREDTLFHYWGLGTLVTVSS VL: QSVLTQPPSASGTPGQRVTISCSGSTSNIGTRYVYWYQQLPGTAPKLLIYKNLQRPSGVPDRFSGSKSGTSASLAISGLQSEDEADYYCAAWDERLNGWVFGGGTKLTVL
5 | 56.8 nM | 0.009 s⁻¹ | 160000 M⁻¹ s⁻¹ | 33.1 nM | 0.024 s⁻¹ | – | TA104 (antibody, V domains shown, Fc SEQ 587, CL SEQ 416) VH: DVQLVESGGGVARPGESLRLSCAASGFTFRDYDMGWVRQAPGEGLEWVSSISVSGTTYYADSVKGRFTISRDNSENTLYLQMNSLTAEDTAVYYCGREDTLFHYWGLGTLVTVSS VL: QSVLTQPPSASGTPGQRVTISCSGSTSNIGTRYVYWYQQLPGTAPKLLIYKNLQRPSGVPDRFSGSKSGTSASLAISGLQSEDEADYYCAAWDERLNGWVFGGGTKLTVL
6 | 7.2 nM | 0.01 s⁻¹ | 1.4e+06 M⁻¹ s⁻¹ | 24.8 nM | 0.014 s⁻¹ | 540000 M⁻¹ s⁻¹ | TA102 (antibody, V domains shown, Fc SEQ 587, CL SEQ 416) VH: DVQLVESGGGVVRPGESLRLSCAASGFTFRNYDMTWVRQAPGEGLEWVATISGTDDTTYYADSVKGRATISRDNSNNTLYLRLFSLRAEDTAIYYCAREASNSFIDYWGLGTLVTVSS VL: QSVLTQPPSASGTPGQRVTISCSGSSSNIGRRYVYWYQQLPGTAPKLLIYRNFERPSGVPDRFSGSKSGTSASLAISGLQSEDEADYYCASWDESLNGWVFGGGTKLTVL
